Experimental data taken from paper PMC12287161, “A bioactive soluble recombinant mouse LIGHT promotes effective tumor immune cell infiltration delaying tumor growth” (Journal of Molecular Medicine (Berlin, Germany), 2025).

T1: mHVEM:Fas (mouse | human, UniProt Q80WM9 39-206; P25445 169-335)
T1 chain: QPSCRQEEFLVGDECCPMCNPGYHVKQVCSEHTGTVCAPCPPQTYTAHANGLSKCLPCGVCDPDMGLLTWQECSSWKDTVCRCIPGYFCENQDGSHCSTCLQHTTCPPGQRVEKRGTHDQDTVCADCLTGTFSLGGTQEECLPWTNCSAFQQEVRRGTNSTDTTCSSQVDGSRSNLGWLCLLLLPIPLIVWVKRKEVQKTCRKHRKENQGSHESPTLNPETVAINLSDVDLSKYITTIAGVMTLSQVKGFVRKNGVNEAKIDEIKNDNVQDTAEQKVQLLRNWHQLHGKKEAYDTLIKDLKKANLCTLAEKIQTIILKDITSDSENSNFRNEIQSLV

B1: Ig.Foldon-mLIGHT (Fc fusion)
chain: GYIPEAPRDGQAYVRKDGEWVLLSTFLDGGKGSWEKLIQDQRSHQANPAAHLTGANASLIGIGGPLLWETRLGLAFLRGLTYHDGALVTMEPGYYYVYSKVQLSGVGCPQGLANGLPITHGLYKRTSRYPKELELLVSRRSPCGRANSSRVWWDSSFLGGVVHLEAGEEVVVRVPGNRLVRPRDGTRSYFGAFMV
B2: Flag-Foldon-mLIGHT (ligand)
chain: GYIPEAPRDGQAYVRKDGEWVLLSTFLDGGKGSWEKLIQDQRSHQANPAAHLTGANASLIGIGGPLLWETRLGLAFLRGLTYHDGALVTMEPGYYYVYSKVQLSGVGCPQGLANGLPITHGLYKRTSRYPKELELLVSRRSPCGRANSSRVWWDSSFLGGVVHLEAGEEVVVRVPGNRLVRPRDGTRSYFGAFMV
notes: Foldon, small homotrimeric domain; mouse LIGHT (TNFSF14, CD258), aa 72-239 of the 239 amino acids-long protein; the majority ran as poorly active species of around 500 kDa; also called pIB-173; source: HEK-293T, conditioned supernatant

Key:
[1] = target: T1, mHVEM:Fas; assay: cell-based or functional assay
[2] = target: the molecule itself; assay: SEC; Superdex S200 Increase HR 10/30 in PBS, 0.55 ml/min, 250 µl of affinity-purified protein; 1 ml fractions analysed by Western blot and on reporter cells; column calibrated with protein standards

| Binder | EC50 of killing of mHVEM:Fas reporter cells (MTS/PMS) by conditioned supernatants of B16.F10 cells expressing Ig.Foldon-mLIGHT [1] [µg/mL] | EC50 of killing of mHVEM:Fas reporter cells (MTS/PMS) by purified Ig.Foldon-mLIGHT [1] [µg/mL] | stoichiometry N [2] |
| --- | --- | --- | --- |
| B1 | 0.0019 | 0.051 | – |
| B2 | – | – | 3 |
